This data set is described as follows: S100A8 proteolysis assay in Capan1 conditioned media (MALDI-TOF/MS). Particulars: 3 μM S100A8, Capan1 conditioned medium, 24 hours at 37°C, MALDI-TOF/MS low molecular weight spectra. It is filed as in vitro ADME, human. Here is the method:
To obtain BxPC3 and Capan1 conditioned media (CM), 400,000 cells were cultured (75 cm^2 flasks) for 96 hours in RPMI supplemented with 1% FCS and 0.1% gentamycin. In parallel, Ukrain (Nowicky Pharma, Wien, Austria) treated Capan1 CM were obtained as above, the difference being that Ukrain was added 24 hours after cells had been seeded at the final concentration of 5 μM. Complete culture media maintained in a cell culture incubator for 96 hours (negative control), Capan1 and Ukrain-treated Capan1 CM were centrifuged at 1,500 rpm for 10 min, and then immediately mixed with 3 μM S100A8 or 2.5 μM S100A9 (ProSpec-Tany TechnoGene, Ness Ziona, Israel) and maintained at 37°C overnight before MALDI-TOF/MS analyses. Complete culture media, BxPC3 and Capan1 CM, treated as described above, were incubated at 37°C with 200 μM of the S100A8 1–19 N-terminal aminoacid sequence (NT-S100A8) (Primm, Milano, Italy) for 1, 2, 3, 4, 5, 6, 12 and 24 hours before MALDI-TOF/MS analyses. At least three independent sets of experiments were performed for both assays.
Cell culture media were first desalted and purified by ZipTip C18 pipette tips, following the procedure described in the ZipTip user’s guide. […]

Experimental findings from publication PMC4108065, “Inflammation and pancreatic cancer: molecular and functional interactions between S100A8, S100A9, NT-S100A8 and TGFβ1” (Cell Communication and Signaling : CCS, 2014) are described below.

In the case of “S100A8: inflammatory calcium binding protein S100A8 (ProSpec-Tany TechnoGene)”, the “fragmentation of S100A8 in conditioned medium” value is reported as “a new peptide was found at 2280 m/z”.
